This is an account of results in US12180255B2, “Compositions and methods for derepressing RE1 silencing transcription factor target genes” (Alcamena Stem Cell Therapeutics, LLC, priority 2019, dated 2024).

For one test, the target named is T1, CTDSP1 (Homo sapiens, UniProt Q9GZU7).
T1 construct: GSGS linker + His6 (C)
T1 sequence (Q9GZU7 with tags, fused parts or gaps): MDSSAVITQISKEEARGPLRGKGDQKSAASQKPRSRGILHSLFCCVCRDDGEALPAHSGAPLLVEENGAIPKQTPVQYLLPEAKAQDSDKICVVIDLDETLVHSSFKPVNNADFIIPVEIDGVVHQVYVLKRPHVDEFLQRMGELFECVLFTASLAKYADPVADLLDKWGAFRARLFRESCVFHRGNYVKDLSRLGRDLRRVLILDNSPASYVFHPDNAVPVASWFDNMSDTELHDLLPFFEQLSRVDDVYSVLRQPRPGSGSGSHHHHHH
Put plainly: In vitro CTDSP1 phosphatase activity on phosphorylated REST peptide. Type of test: biochemical. The settings on record: for Relative Phosphatase activity: 1 μM peptide-GST fusion, relative to GST control, substrate TEDpSPPpSPPLPKEN; for inhibition of phosphatase activity: 1 μM, relative to control (GST). As for the experimental part: FIG. 25. In vitro CTDSP1 phosphatase activity (relative to GST control) on the REST peptide (TEDpSPPp[…] (SEQ ID NO: 329)) as a substrate after exposure to 1 μM of RPP (SEQ ID NO: 1) or one of its variants (Table 3).
FIG. 26. […] N=5, error bars are standard deviation.
Results: FIG. 25—The top 51 most abundant RPP variants identified in the RNA display/protein evolution screen are listed in-Table 3 in the order of most (V1) to least (V51) abundant peptides. The primers used to make these peptides are listed in-Table 5. A phosphatase activity screen (Table 6, FIG. 25) was used to assess the ability of the top 51 RPPV to inhibit CTDSP1 phosphatase activity at amino acids 861 and 864 on the endogenous phosphorylated REST peptide (TEDpSPPp[…] (SEQ ID NO: 329)).
The phosphorylated REST peptide (TEDpSPPp[…] (SEQ ID NO: 329)) was synthesized by GeneScript. Phosphatase reactions were performed with 10 mM Tris pH 8, 10 mM MgCl2, 100 nM CTDSP1, 0.5 μM phosphate sensor (Thermo Fischer), 50 μM of REST peptide and various concentrations of peptide-GST fusions at room temperature for 10 min. All assays were performed in 96-well pates (Corning P/N 3686) rinsed with water 10 times. Fluorescence was measured by BioTek Synergy HTX using kinetic read with excitation at 420/27 nm and emission at 485/20 nm.

The test system of a further test is L5 DRGs. Kind of test: qRT-PCR mRNA expression in ex vivo cultured L5 DRGs. The settings on record: DRG; 1 μM; 48 h. It counts as cell-based, Sprague Dawley rat. As for the experimental part:
FIG. 15. […] Error bars =standard error of the mean.
L5 DRGs were dissected from adult male rats and plated in 12-well plates pre-coated with poly-D-Lysine (PDL) and laminin in a minimal volume of medium (250 ul Neurobasal™-A medium (GIBCO) supplemented with B27 (GIBCO), 50 ng/ml NGF (Sigma-Aldrich) and penicillin streptomycin) to allow attachment to the culture plate. One day after plating, DRGs were incubated with RPP (SEQ. ID NO: 12: 1 μM, 3 μM or 10 μM in culture medium, FIGS. 14 and 16; SEQ ID NOS: 13 and 14: 3 μM, FIG. 15) for 48 h. For RNA expression analysis, DRGs were lysed in 300 μl of Qiazol in a 1.5 ml tube containing Bullet Blender Pink Beads using a Bullet Blender Tissue Homogenizer (NextAdvance). Total RNA was extracted using RNeasy Midi Kit (Qiagen) according to manufacturer's instructions. Purified RNA was quantified with NanoDrop 2000 (ThermoFIsher), and reverse transcription was run using High Capacity cDNA Reverse Transcription Kit (Applied Biosystems) and 2 ng/ul RNA per reaction. For qRT-PCR, 5 ul of cDNA (corresponding to 10 ng of RNA) were mixed with to 10 ul SsoAdvanced™ Universal SYBR® Green Supermix (BioRad) and 1 ul of each primer (final primer concentration 500 nM each). Reactions were run in triplicates in a QuantStudio™ 7 Flex Real-Time PCR system (Applied Biosystems). Amplification data were analyzed using the comparative cycle threshold (ΔΔCt) method and β-actin as calibrator. Primers were as follows: β-actin: F-[…] (SEQ ID NO: 340), R-[…] (SEQ ID NO: 333); KV4.3: F-[…] (SEQ ID NO: 341), R-[…] (SEQ ID NO: 342); KV7.2 F-[…] AG (SEQ ID NO: 343), R-[…] (SEQ ID NO: 344); OPRM1: F-[…] (SEQ ID NO: 345), R-[…] (SEQ ID NO: 346).
On the technique in general: In qPCR the cycle at which signal appears reflects the starting amount.

[ ]: non-standard residue; d: D form. ξ: configuration not given here. ξGly(dodecyl) = CCCCCCCCCCCCC(N)C(=O)O

Regarding MCTGDLKLPEPPMSKKKKKNC [v29], the “Relative Phosphatase activity” value in the test with CTDSP1 amounted to 0.17. Same read-out and setting: in the case of “MCTEVLVPRTTSGKGRLWFWLWSQKGHPSASACGS [v42]” it was 0.48; in that of MCTEDLQPPKTTMAEKYC [v30], 0.62; in that of MCNGDLERPEPPVAKEYC [v34], 0.74. The same measure, in the same setting: in the case of MCSEDPEPPKTTMTKKNC [v31] it was 0.43; in that of MCTEDQEQQEEQLPEENC [v9], 0.65. As to MCTEDLQPPEPQLPEVNC [v23], the “Relative Phosphatase activity” value with CTDSP1 is listed as 0.60. The same measure, in the same setting: with MCTEDLQQPERSQPMESC [v40] the figure was 0.29; with MCTEDLEPPKATMTKKDC [v12], 0.41; with MCTAAPEPPEPQLPQANC [v44], 0.53. The same measure, in the same setting: in the case of MCTEAPAPPEPALPKKKKNC [v4] it was 0.67; in that of MCTEDLQSPKTTMTKENC [v7], 0.24; in that of MCNEALEPPPLRKEHC [v36], 0.68. Regarding MCSEAQEPPESRLPQVNC [v16], the “Relative Phosphatase activity” value in the test with CTDSP1 is listed as 0.79. On the same count and under the same terms, in the case of MCAGDLKPPETTMSKKNC [v39] it was 0.59. The same measure, in the same setting: in the case of MCAEDLQPPPLLEAHCGSDSGRKKRRQC [v43] it was 0.97. Consider “SEQ ID NO: 14: RPP fused to an intracellular transport peptide and cyclized; sequence in Table 19 (cyclo([dR][dR][ξGly(dodecyl)][dR][dR][dR][dK][dP][dL][dP][dP][dE][dP][dP][dE][dL][dD][dE]); SMILES CCCCCCCCCCCCC1NC(=O)[C@@H](CCCNC(=N)N)NC(=O)[C@@H](CCCNC(=N)N)NC(=O)[C@@H](CCC(=O)O)NC(=O)[C@@H](CC(=O)O)NC(=O)[C@@H](CC(C)C)NC(=O)[C@@H](CCC(=O)O)NC(=O)[C@H]2CCCN2C(=O)[C@H]2CCCN2C(=O)[C@@H](CCC(=O)O)NC(=O)[C@H]2CCCN2C(=O)[C@H]2CCCN2C(=O)[C@@H](CC(C)C)NC(=O)[C@H]2CCCN2C(=O)[C@@H](CCCCN)NC(=O)[C@@H](CCCNC(=N)N)NC(=O)[C@@H](CCCNC(=N)N)NC(=O)[C@@H](CCCNC(=N)N)NC1=O)”, for which, in the test with L5 DRGs, the “Increase, Nav1.8 mRNA” value worked out at 13x. Consider MCTGVQEPPEATLPKKNC [v15], for which, in the test with CTDSP1, the “Relative Phosphatase activity” value turned out to be 0.70. On the same count and under the same terms, with MCTKDLAPQAPPLLKENC [v51] the figure was 0.71. Regarding MCTEDQERPPVTKEDC [v13], the “Relative Phosphatase activity” value in the test with CTDSP1 stood at 0.20. The same measure, in the same setting: with MCTEDLQSPKTTMTKENC [v28] the figure was 0.33; with MCSVDLQPPARLRPMVNC [v46], 0.37. Consider MCIADPEPPEAQLPEGNC [v14], for which the “Relative Phosphatase activity” value with CTDSP1 amounted to 0.54. Same read-out and setting: in the case of MCTADLEPPEPRMEKKKVDC [v5] it was 0.49; in that of MCTEDLKPPEASLPEENC [v32], 0.89; in that of MCTGDLQPPESRQPQVNC [v21], 0.26.

Regarding MCPGDLKQPEPPMPKEYC [v11], the “Relative Phosphatase activity” value in the test with CTDSP1 came to 0.13. On the same count and under the same terms, in the case of MCTEDLEPPERPLPREIC [v38] it was 0.28; in that of MCTEDMEPRKTTMTKKYC [v25], 0.63; in that of MCTEDLQLPKTTMTKEYC [v19], 0.76. On the same count and under the same terms, with MCTEAPAPPEPALPKKKKKNC [v2] the figure was 0.66; with MCSVDLQPPARLRPMVNC [v20], 0.13. Still for that read-out and setting: in the case of MCTGDLQPPEAQVIEVNC [v22] it was 0.59; in that of “MCPEDLQPPEPALPEKKKKKIVVLALVVKSAVSVGVV [v41]”, 0.46; in that of MCTEAPAPPEPALPKKKKKNC [v27], 0.19.

On to MCTGDLQPPKTTVSKKDC [v6], for which the “Relative Phosphatase activity” value with CTDSP1 is given as 0.77.

Consider MCTEDLEPPEPPLPKENC [v1], for which, in the test with CTDSP1, the “inhibition of phosphatase activity” value was “approximately 60%”. Turning to MCAGDLEQPEPPVAKKKKKNC [v33], in the test with CTDSP1, the “Relative Phosphatase activity” value was 0.00 and the “inhibition of phosphatase activity” value was found to be 100%. As to MCTADLKPPKTTMTKQNC [v10], in the test with CTDSP1, the “Relative Phosphatase activity” value worked out at 0.84. Consider MCPEDLERPPLTKEHC [v37], for which, in the test with CTDSP1, the “Relative Phosphatase activity” value was 0.16.

As to MCTEALEPPEPPLTKENC [v47], in the test with CTDSP1, the “Relative Phosphatase activity” value came to 0.20. Still for that read-out and setting: in the case of MCTEAPAPPEPALPKKKKKKNC [v26] it was 0.46.

Turning to MCTADLQPPEASLPQQNC [v49], in the test with CTDSP1, the “Relative Phosphatase activity” value is given as 0.58. In the case of MCTEDLKPPEPPLPKENC [v35], in the test with CTDSP1, the “Relative Phosphatase activity” value was found to be 0.07 and the “inhibition of phosphatase activity” value is reported as “approximately 90%”. In the case of MCTKHLEPPGPPLPQENC [v17], the “Relative Phosphatase activity” value with CTDSP1 was 0.24. Same read-out and setting: with MCTAAPEPPEPPVSKEYC [v18] the figure was 0.43.
